Bridges are numbered along the chain shown (N, C = ends). [ ]: non-standard residue; d: D form. Chg = N[C@H](C(=O)O)C1CCCCC1
T1: CathepsinG, from human neutrophils (human, UniProt P08311 21-244)
T1 sequence (looked up): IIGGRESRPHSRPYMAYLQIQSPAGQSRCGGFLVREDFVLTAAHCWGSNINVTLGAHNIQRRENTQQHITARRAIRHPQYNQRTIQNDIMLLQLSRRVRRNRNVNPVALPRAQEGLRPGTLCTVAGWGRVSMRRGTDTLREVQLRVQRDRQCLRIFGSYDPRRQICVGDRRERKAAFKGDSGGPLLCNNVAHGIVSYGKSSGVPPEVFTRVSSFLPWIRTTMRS

B1: Example 32 (peptide)
peptide: XCTKSDPPICY
HELM: PEPTIDE1{[Nc1ccc(C[C@H](N[*:1])C(=O)[*:2])cc1].C.T.K.S.D.P.P.I.C.Y.[dP].P}$PEPTIDE1,PEPTIDE1,2:R3-10:R3|PEPTIDE1,PEPTIDE1,1:R1-13:R2$$$V2.0
SMILES: CC[C@H](C)[C@@H]1NC(=O)[C@@H]2CCCN2C(=O)[C@@H]2CCCN2C(=O)[C@H](CC(=O)O)NC(=O)[C@H](CO)NC(=O)[C@H](CCCCN)NC(=O)[C@H]([C@@H](C)O)NC(=O)[C@@H]2CSSC[C@H](NC1=O)C(=O)N[C@@H](Cc1ccc(O)cc1)C(=O)N1CCC[C@@H]1C(=O)N1CCC[C@H]1C(=O)N[C@@H](Cc1ccc(N)cc1)C(=O)N2
B2: Example 62 (peptide)
peptide: XCTKSDPPICS
HELM: PEPTIDE1{[O=C([C@H](Cc1cccc2ccccc12)N[*:1])[*:2]].C.T.K.S.D.P.P.I.C.S.[dP].P}$PEPTIDE1,PEPTIDE1,2:R3-10:R3|PEPTIDE1,PEPTIDE1,1:R1-13:R2$$$V2.0
SMILES: CC[C@H](C)[C@@H]1NC(=O)[C@@H]2CCCN2C(=O)[C@@H]2CCCN2C(=O)[C@H](CC(=O)O)NC(=O)[C@H](CO)NC(=O)[C@H](CCCCN)NC(=O)[C@H]([C@@H](C)O)NC(=O)[C@@H]2CSSC[C@H](NC1=O)C(=O)N[C@@H](CO)C(=O)N1CCC[C@@H]1C(=O)N1CCC[C@H]1C(=O)N[C@@H](Cc1cccc3ccccc13)C(=O)N2
B3: Example 43 (peptide)
peptide: XCTKSDPPICD
HELM: PEPTIDE1{[Nle].C.T.K.S.D.P.P.I.C.D.[dP].P}$PEPTIDE1,PEPTIDE1,2:R3-10:R3|PEPTIDE1,PEPTIDE1,1:R1-13:R2$$$V2.0
SMILES: CCCC[C@@H]1NC(=O)[C@@H]2CCCN2C(=O)[C@H]2CCCN2C(=O)[C@H](CC(=O)O)NC(=O)[C@@H]2CSSC[C@H](NC1=O)C(=O)N[C@@H]([C@@H](C)O)C(=O)N[C@@H](CCCCN)C(=O)N[C@@H](CO)C(=O)N[C@@H](CC(=O)O)C(=O)N1CCC[C@H]1C(=O)N1CCC[C@H]1C(=O)N[C@@H]([C@@H](C)CC)C(=O)N2
B4: Example 34 (peptide)
peptide: XCTKSDPPICT
HELM: PEPTIDE1{[Cha].C.T.K.S.D.P.P.I.C.T.[dP].P}$PEPTIDE1,PEPTIDE1,2:R3-10:R3|PEPTIDE1,PEPTIDE1,1:R1-13:R2$$$V2.0
SMILES: CC[C@H](C)[C@@H]1NC(=O)[C@@H]2CCCN2C(=O)[C@@H]2CCCN2C(=O)[C@H](CC(=O)O)NC(=O)[C@H](CO)NC(=O)[C@H](CCCCN)NC(=O)[C@H]([C@@H](C)O)NC(=O)[C@@H]2CSSC[C@H](NC1=O)C(=O)N[C@@H]([C@@H](C)O)C(=O)N1CCC[C@@H]1C(=O)N1CCC[C@H]1C(=O)N[C@@H](CC1CCCCC1)C(=O)N2
B5: Example 66 (peptide)
peptide: XCTKSDPPXCY
HELM: PEPTIDE1{[O=C([C@@H](N[*:1])C1CCCCC1)[*:2]].C.T.K.S.D.P.P.[Cha].C.Y.[dP].P}$PEPTIDE1,PEPTIDE1,2:R3-10:R3|PEPTIDE1,PEPTIDE1,1:R1-13:R2$$$V2.0
SMILES: C[C@@H](O)[C@@H]1NC(=O)[C@@H]2CSSC[C@H](NC(=O)[C@H](CC3CCCCC3)NC(=O)[C@@H]3CCCN3C(=O)[C@@H]3CCCN3C(=O)[C@H](CC(=O)O)NC(=O)[C@H](CO)NC(=O)[C@H](CCCCN)NC1=O)C(=O)N[C@@H](Cc1ccc(O)cc1)C(=O)N1CCC[C@@H]1C(=O)N1CCC[C@H]1C(=O)N[C@@H](C1CCCCC1)C(=O)N2
B6: Example 70 (peptide)
peptide: XCTKSDPPXCN
HELM: PEPTIDE1{[Nc1ccc(C[C@H](N[*:1])C(=O)[*:2])cc1].C.T.K.S.D.P.P.[Cha].C.N.[dP].P}$PEPTIDE1,PEPTIDE1,2:R3-10:R3|PEPTIDE1,PEPTIDE1,1:R1-13:R2$$$V2.0
SMILES: C[C@@H](O)[C@@H]1NC(=O)[C@@H]2CSSC[C@H](NC(=O)[C@H](CC3CCCCC3)NC(=O)[C@@H]3CCCN3C(=O)[C@@H]3CCCN3C(=O)[C@H](CC(=O)O)NC(=O)[C@H](CO)NC(=O)[C@H](CCCCN)NC1=O)C(=O)N[C@@H](CC(N)=O)C(=O)N1CCC[C@@H]1C(=O)N1CCC[C@H]1C(=O)N[C@@H](Cc1ccc(N)cc1)C(=O)N2
B7: Example 61 (peptide)
peptide: WCTKSDPPICS
HELM: PEPTIDE1{W.C.T.K.S.D.P.P.I.C.S.[dP].P}$PEPTIDE1,PEPTIDE1,2:R3-10:R3|PEPTIDE1,PEPTIDE1,1:R1-13:R2$$$V2.0
SMILES: CC[C@H](C)[C@@H]1NC(=O)[C@@H]2CCCN2C(=O)[C@@H]2CCCN2C(=O)[C@H](CC(=O)O)NC(=O)[C@H](CO)NC(=O)[C@H](CCCCN)NC(=O)[C@H]([C@@H](C)O)NC(=O)[C@@H]2CSSC[C@H](NC1=O)C(=O)N[C@@H](CO)C(=O)N1CCC[C@@H]1C(=O)N1CCC[C@H]1C(=O)N[C@@H](Cc1c[nH]c3ccccc13)C(=O)N2
B8: Example 35 (peptide)
peptide: XCTKSDPPICD
HELM: PEPTIDE1{[Cha].C.T.K.S.D.P.P.I.C.D.[dP].P}$PEPTIDE1,PEPTIDE1,2:R3-10:R3|PEPTIDE1,PEPTIDE1,1:R1-13:R2$$$V2.0
SMILES: CC[C@H](C)[C@@H]1NC(=O)[C@@H]2CCCN2C(=O)[C@@H]2CCCN2C(=O)[C@H](CC(=O)O)NC(=O)[C@H](CO)NC(=O)[C@H](CCCCN)NC(=O)[C@H]([C@@H](C)O)NC(=O)[C@@H]2CSSC[C@H](NC1=O)C(=O)N[C@@H](CC(=O)O)C(=O)N1CCC[C@@H]1C(=O)N1CCC[C@H]1C(=O)N[C@@H](CC1CCCCC1)C(=O)N2
B9: Example 41 (peptide)
peptide: XCTKSDPPICN
HELM: PEPTIDE1{[Nle].C.T.K.S.D.P.P.I.C.N.[dP].P}$PEPTIDE1,PEPTIDE1,2:R3-10:R3|PEPTIDE1,PEPTIDE1,1:R1-13:R2$$$V2.0
SMILES: CCCC[C@@H]1NC(=O)[C@@H]2CCCN2C(=O)[C@H]2CCCN2C(=O)[C@H](CC(N)=O)NC(=O)[C@@H]2CSSC[C@H](NC1=O)C(=O)N[C@@H]([C@@H](C)O)C(=O)N[C@@H](CCCCN)C(=O)N[C@@H](CO)C(=O)N[C@@H](CC(=O)O)C(=O)N1CCC[C@H]1C(=O)N1CCC[C@H]1C(=O)N[C@@H]([C@@H](C)CC)C(=O)N2
B10: Example 29 (peptide)
peptide: XCTKSDPPICD
HELM: PEPTIDE1{[O=C([C@H](CCc1ccccc1)N[*:1])[*:2]].C.T.K.S.D.P.P.I.C.D.[dP].P}$PEPTIDE1,PEPTIDE1,2:R3-10:R3|PEPTIDE1,PEPTIDE1,1:R1-13:R2$$$V2.0
SMILES: CC[C@H](C)[C@@H]1NC(=O)[C@@H]2CCCN2C(=O)[C@@H]2CCCN2C(=O)[C@H](CC(=O)O)NC(=O)[C@H](CO)NC(=O)[C@H](CCCCN)NC(=O)[C@H]([C@@H](C)O)NC(=O)[C@@H]2CSSC[C@H](NC1=O)C(=O)N[C@@H](CC(=O)O)C(=O)N1CCC[C@@H]1C(=O)N1CCC[C@H]1C(=O)N[C@@H](CCc1ccccc1)C(=O)N2
B11: Example 45 (peptide)
peptide: XCTKSDPPICN
HELM: PEPTIDE1{[O=C([C@H](Cc1ccccc1Cl)N[*:1])[*:2]].C.T.K.S.D.P.P.I.C.N.[dP].P}$PEPTIDE1,PEPTIDE1,2:R3-10:R3|PEPTIDE1,PEPTIDE1,1:R1-13:R2$$$V2.0
SMILES: CC[C@H](C)[C@@H]1NC(=O)[C@@H]2CCCN2C(=O)[C@@H]2CCCN2C(=O)[C@H](CC(=O)O)NC(=O)[C@H](CO)NC(=O)[C@H](CCCCN)NC(=O)[C@H]([C@@H](C)O)NC(=O)[C@@H]2CSSC[C@H](NC1=O)C(=O)N[C@@H](CC(N)=O)C(=O)N1CCC[C@@H]1C(=O)N1CCC[C@H]1C(=O)N[C@@H](Cc1ccccc1Cl)C(=O)N2
B12: Example 33 (peptide)
peptide: XCTKSDPPICN
HELM: PEPTIDE1{[Cha].C.T.K.S.D.P.P.I.C.N.[dP].P}$PEPTIDE1,PEPTIDE1,2:R3-10:R3|PEPTIDE1,PEPTIDE1,1:R1-13:R2$$$V2.0
SMILES: CC[C@H](C)[C@@H]1NC(=O)[C@@H]2CCCN2C(=O)[C@@H]2CCCN2C(=O)[C@H](CC(=O)O)NC(=O)[C@H](CO)NC(=O)[C@H](CCCCN)NC(=O)[C@H]([C@@H](C)O)NC(=O)[C@@H]2CSSC[C@H](NC1=O)C(=O)N[C@@H](CC(N)=O)C(=O)N1CCC[C@@H]1C(=O)N1CCC[C@H]1C(=O)N[C@@H](CC1CCCCC1)C(=O)N2
B13: Example 27 (peptide)
peptide: XCTKSDPPICN
HELM: PEPTIDE1{[O=C([C@H](CCc1ccccc1)N[*:1])[*:2]].C.T.K.S.D.P.P.I.C.N.[dP].P}$PEPTIDE1,PEPTIDE1,2:R3-10:R3|PEPTIDE1,PEPTIDE1,1:R1-13:R2$$$V2.0
SMILES: CC[C@H](C)[C@@H]1NC(=O)[C@@H]2CCCN2C(=O)[C@@H]2CCCN2C(=O)[C@H](CC(=O)O)NC(=O)[C@H](CO)NC(=O)[C@H](CCCCN)NC(=O)[C@H]([C@@H](C)O)NC(=O)[C@@H]2CSSC[C@H](NC1=O)C(=O)N[C@@H](CC(N)=O)C(=O)N1CCC[C@@H]1C(=O)N1CCC[C@H]1C(=O)N[C@@H](CCc1ccccc1)C(=O)N2

What follows are binders tested against T1, CathepsinG, from human neutrophils (assay: cell-based or functional assay).

Row | Binder | IC50 [nmol]
1 | B1 | 52
2 | B2 | 69
3 | B3 | 77
4 | B4 | 56
5 | B5 | 48
6 | B6 | 69
7 | B7 | 72
8 | B8 | 54
9 | B9 | 49
10 | cyclo([Chg]CTK[AlloThr]DPPYCY[dP]P) (disulfide 2-10) [Example 67] | 48
11 | B10 | 42
12 | B11 | 47
13 | B12 | 45
14 | B13 | 48
15 | cyclo(FCTKSDPPICS[dN]P) (disulfide 2-10) [Example 69] | 68

Reference: US20140213531A1 (POLYPHOR, published 2014)
